# Experimental data published in the DeepSol protein solubility set.
# Test: soluble on expression in E. coli; label from the status in PepcDB or PDB records
row,Sequence,soluble on expression in E. coli
1,MGSDKIHHHHHHMWKSISQVLAEQFGAYYFIKHKEKLYSGEMNEIWLINDEVQTVFVKINERSYRSMFRAEADQLALLAKTNSINVPLVYGIGNSQGHSFLLLEALNKSKNKQSSFTIFAEKIAQLHQIQGPDKYGLDFDTWLGPIYQPNDWQTSWAKFFSENRIGWQLQICKEKGLIFGNIDLIVQIVADTLSKHNPKPSILHGNLWIENCIQVDDKIFVCNPACYWGDRECDIAFSSLFEPFPTNFYQRYNEIYPLEEGYLERKLIYQLYYLLNFSYRYYNKKQSYVSLTQKLINQILHKIDK,not soluble
2,MSLKNVLTGLFLLILATACSEEEPQTITPVPFNQVTLTDGFWKNRMQTEINVTVPFSVEQSAPAVERFRRCAAFLAGDSTALPETHRFISSDLYKVMEGVSYSLMIQPNKELEEFMDRVADLITASQKDDGYLYISHICGNPDPREMGEKPYSWVVHSHELYNVGHLYEAAVAYYQATGKDKLLNVAIKSAKHVNKVFFEGGDPNYNGGKPINQAPGHEEIELALCKLYRVTNDPLYLDMAKKFLEIRGVTYRPEGEGVMAPTYAQQHAPVKEQTEAVGHAVRAAYLYTAMAQVDALTGLNDYTKALNSIWTNLVTTRMHITGGLGAVEGMEGFGAPYELPNLTAYNETCAAVANVFFNYGMYLDSGDAKFLDIAELSLFNNSLAGINLHGDRFFYVNPLEADGVRRFNHGNGGRAKWFGCACCPPNISRLILQVPGYMYAYSKDRVYLTLYGGSQTTIPLEGTRVKLEQTSAYPFDGKVRLTVQPEKGSKFSVCMRIPTWARSDEFVPGGLYPYKQPKQAEVELSVNGQKTDFKMEKGFAVIKRDWKPGDVVELNIPMPVRFVDCIPEVSENIGKTAVTRGPLVYCAEEVDNAGPVQRLYLGDTNEAQAKVANISSGVLQGLERITLPGMEKKVGGITSREITMIPYYAWCNRGDNRTMLVWLNEEASTASIGQQTMAYLRNVKGVNASSVAGGKNISVRALCDGKVSESSADKLTEQWVSEGSGKQWVQVDFREPFLLNSLSVYWLDDQDKITVPSGWSVEYKSDAGWTPLELYVTDSYQMGTDRFNVVHPSGSLEVESVRILIEPQKGKSIGVSEIRFEEGHHHHHH,soluble
3,MDNNVEDKKEAMLKRLANRHEKRLLDQVKSNTKKIDLRATERAFLESSPTSMNMRTPLNPSISSSVSDSPILSYDEKANKQIIALATWCNTMMELDVSEEMDLGESKAEACRNIQKMLKKRSDTSEVENTQENARRRYQRIFEKNDPEVVKKKCKQLLDDSGMDASIKDLLSKNNVAIRKEHAVYNDIGLQTTLLHTFLSFHPAWLKTALEAIFNTRIDAQPKHLMKKLSQFFLDLVFSNPTMLKNKKFAQGSGKPIITEAGKEALHKHFLSVSMKLMFLIETAHTHRVIPNLTRIFTKSSHFNCLDDVFSELTKELLTGSSATFKKAFAKVGFIPTYRQSFIENYDYQAKGFSDFSDGLILAKLLETVGEMPHGQILLKLRDPAGDRIRKIGNVKIVLQEMSSLGVPTDNVNAESIVGGKKDEILSILWAIIGVRVAKEQRIKVTRVSEERTPKKRRSAVHDDMSSEVLKMCKIYGRQMEIEVMDLDSLSDGCLLAKLWTTFGTNSTPIQDYDGLSLWEKVVSVAELELCIQRGLDQNMALFVKMFLERLGMIQDLNEKATKIQRMWKAYVQRKNTPKLYFIVQQLLADSSIPRNRSVSPFSNNVTFTVPRTPRNNILTERPSLSQIPSSRQSMDSTFNDATFTVSRDSIESMNKMQKTPLRGTFTRKTIAMVIEEEDDSENNETVVPSTLKKRTVVRMEHNAEVFREQDEDDENQDKDTVAPSAENLDSPPSDIPLETLSSIPSASQSAIFLQDSETGKEMHVPKAEDVGVVVLEASDSPVALEGNNEASYDGQKIENLETFEIKEGKTQEDLPSKSPMDPTQTSGSPLVEFRMTEEQERLEMLFQSLSEDQKNFVKTNNLSVSIEDDANTPELRRILRQTRELKRKQQEIARKLGNIERNALAVRDGGEDSSDSRSDAGHDVAILHGDDSQLFENSMQLDQKSQLQNDETQILENKKKAAVVIQKMIRGFIARRKFQMEISNIRNRMIQYNHILAQEDEQIGIEEMEDKSVEAKLKKCALHGLTNDNLHVVHVAATVIDRVTDLVPSLLEKLVVELNGIKSITDVLIVADRGFSYTSILHPLLNVLEKLFTKIPEEVTNSHILPHLKILSPRLMLLMLKHSEVKELFIPIINTLTSIARRFPDKKQSSFSSSSYSIKQSLKKVKDQECRNKLVRLESICEDML,not soluble
4,GHHHHHHEAIAKRLDACQDQLLELYEENSIDIHKHIMHWKCIRLESVLLHKAKQMGLSHIGLQVVPPLTVSETKGHNAIEMQMHLESLAKTQYGVEPWTLQDTSYEMWLTPPKRCFKKQGNTVEVKFDGCEDNVMEYVVWTHIYLQDNDSWVKVTSSVDAKGIYYTCGQFKTYYVNFNKEAQKYGSTNHWEVCYGSTVICSPASVSSKKKK,soluble
5,AHHHHHHGSLIVVRPGRKKNELEAFIIENPPEKLSQRRNLKADRVVRLIMRDNRLFKALEGSQYLNPKEVERALRNSRIVLVNANEWEEYFKKRLMNKRVEKADICRLCLLNGKITVLTEGNRIRYRDEYICESCAEEELKRELRFRFNSIGMLEQAKKLLERFRDLDKVISIFDPSFDPTKHPEITKWDELKAKHIRVEKMHIDELNIPEEFKKVLKAEGINELLPVQVLAIKNGLLEGENLLVVSATASGKTLIGELAGIPKALKGKKMLFLVPLVALANQKYEDFKRRYSKLGLKVAIRVGMSRIKTKEEPIVLDTGTDAHIIVGTYEGIDYLLRAGKKIGNVGTVVIDEIHMLDDEERGARLDGLIARLRKLYSNAQFIGLSATVGNPQELARKLGMKLVLYDERPVDLERHLIIARNESEKWRYIAKLCKAEAMRKSEKGFKGQTIVFTFSRRRCHELASFLTGQGLKAKAYHSGLPYVQRKLTEMEFQAQMIDVVVTTAALGAGVDFPASQVIFESLAMGNKWITVREFHQMLGRAGRPQYHEKGKVYIIVEPGKKYSAQMEGTEDEVALKLLTSPIEPVIVEWSDEFEEDNVLAHACVFNRLKVIEEVQSLCLGANQSAKNVLEKLMEKGLVKIYGDKVEATPYGRAVSMSFLLPREAEFIRDNLESTDPIEIAIKLLPFENVYLPGSLQREIESAVRGKISSNIFSSSFASVLEELDKIIPEISPNAAERLFLIYQDFFNCPEQDCTEFAMERIGRKIIDLRREGYEPSKISEHFRKVYALILYPGDVFTWLDGIVRKLEAIERIARVFNKRRVVEDTIRVRREIEEGKILKGERR,not soluble
6,HHHHHHSSGLVPRGSHMGGTGSGMTPGEAWKKQLNKLGKTQFEQYKRSCILEVDRTHARDSLENGIQNGIAVSRGSAKLRWMEERGYVKPTGIVVDLGCGRGGWSYYAASLKNVKKVMAFTLGVQGHEKPIMRTTLGWNLIRFKDKTDVFNMEVIPGDTLLCDIGESSPSIAVEEQRTLRVLNCAKQWLQEGNYTEFCIKVLCPYTPLIMEELSRLQLKHGGGLVRVPLSRNSTHEMYWVSGTRTDVVGTVSNVSRLLTRRMLNKPQPPTLEDDVILDMGTR,soluble
7,MSLDWFTVDDSVLRVALVFPLQGSAGIFGPTCELCARLAAEEVNRAGGVLGKELRLLPVDGGAPPREIADRVAALVDLGVVQGVTGWHISSVRQALAPRIAHRVPYVYTALYEGGEHTAGVFLTSETPRDQLRPAMRLLARERGVRRWFVIGNDYVWPRRTARAAHSYARECGGSIGGEVYLPLGTHDFEPVLRRIERSDADAVLMLLVGSDAVRFNRAFAAAGLDGRCLRLSTLMDENMLLASGPAATADLYSTAGFFASLANQDTLDFHGRYAARYGVEAPALGSLGESCYEGVLLLAALIGRAGTLEVSAIGAAADTVSYEGPRGLLRLRGGHVRQRIYLARADGLDFDVVAELDLHSSRPEGHHHHHH,not soluble
8,MDFELCPKFEKTFSILGKKWNGLIIDVLLEDGPQRFKNLARRIPKCSDRVLVVRLKELEENGIVSRVTHCDSALIEYRLTTKGQDLRQVMDTVHNWSDKWFSPAES,not soluble
9,MAHHHHHHMGTLEAQTQGPGSMMAASHDDDTVDGLATAVRGGDRAALPRAITLVESTRPDHREQAQQLLLRLLPDSGNAHRVGITGVPGVGKSTAIEALGMHLIERGHRVAVLAVDPSSTRTGGSILGDKTRMARLAVHPNAYIRPSPTSGTLGGVTRATRETVVLLEAAGFDVILIETVGVGQSEVAVANMVDTFVLLTLARTGDQLQGIKKGVLELADIVVVNKADGEHHKEARLAARELSAAIRLIYPREALWRPPVLTMSAVEGRGLAELWDTVERHRQVLTGAGEFDARRRDQQVDWTWQLVRDAVLDRVWSNPTVRKVRSELERRVRAGELTPALAAQQILEIANLTDR,soluble
10,MISMKPRYKPDWESLREHTVPKWFDKAKFGIFIHWGIYSVPGWATPTGELGKVPMDAWFFQNPYAEWYENSLRIKESPTWEYHVKTYGENFEYEKFADLFTAEKWDPQEWADLFKKAGAKYVIPTTKHHDGFCLWGTKYTDFNSVKRGPKRDLVGDLAKAVREAGLRFGVYYSGGLDWRFTTEPIRYPEDLSYIRPNTYEYADYAYKQVMELVDLYLPDVLWNDMGWPEKGKEDLKYLFAYYYNKHPEGSVNDRWGVPHWDFKTAEYHVNYPGDLPGYKWEFTRGIGLSFGYNRNEGPEHMLSVEQLVYTLVDVVSKGGNLLLNVGPKGDGTIPDLQKERLLGLGEWLRKYGDAIYGTSVWERCCAKTEDGTEIRFTRKCNRIFVIFLGIPTGEKIVIEDLNLSAGTVRHFLTGERLSFKNVGKNLEITVPKKLLETDSITLVLEAVEEHHHHHH,soluble
11,SHMAPEDPNEEAVSQIFPDSVMLAVQEGIDLLTFPPAPGSPE,soluble
12,MGNMWGKNRGAVERFQTRREALFDDFKSRSAPASLVNNPRIVKGNETAEQIETTFNEILKLDLIALKSALQTDKYNAYTVLCAFVWRAIDVNSEINCITEVIREAFNTAEALDDNYAQTGEKGQLFGLPFSVKSNFYMENYDVTVGLAKLLEQPKTTTCPMVQFLSDQGAVPFCLTNVPQGLLSYVSSNPIYGTTKNPWDFSRTPGGSSGGEAALLAAGGAAFGIGSDLAGSLRIPAAFCGLVTLKPTQDRLCVTDTHGGLPGRGRLGLSFGFYTRSVKEQEFLLGLIVGRSEYLELCPMSSPAKLEKHIEKDQKLVIGWFVDDGFNPVVPSNRRAVEETVKSLQAKGHQVVELKLADVSEEFPPFAVADMLFRNVMPDNGAYMSEMYAGEQYDEHMKLFIRLVCLKQNFLVSFLLRYGVMPFAKLALSKRLACIGSAYNSDLAACRQNQENTDSYKLQWIRYWKSKKIDALICPSFITPAQPFEYPAQLSNGAFITGLFNMLDVPAGVVPVSPVNQKDVDQLIDGFSTEGDLLLKKQREAARGTTGLPNAVQVVTLPNCEEMCLRVMRLVEESAEGVQRLQWRVGASAAPIDVENTPAGVVSSLEHFERVNLLH,not soluble
13,MSNVISVENLGKKYLISHQGREPYTALRDVLTDGARAFYRRLFSPGTSQADAQAEEFWALKDVSFEVKQGDRIGIIGRNGAGKSTLLKILSRITEPTEGRVRIRGRVASLLEVGTGFHPELTGRENIFLNGAILGMNRAEIARKFDEIVAFAEIEKFLDTPVKRYSSGMYVRLAFAVAAHLEPEILIVDEVLAVGDAQFQNKCLGKMEDVSTKEGRTVLFVSHNMGAIDRLCTRAVLLERGRVRLADFTKPVIQMYLDKAKNAISAWSCSTSIPDFDGIFFESISIVNKDRKIAEVLPSNEPFSITLVVNATASLKGVQIAIRITNEQGIPILTTTNCDKAGKLQEISRGRYRYTVSLPASFLPPGYYTLIVASFVPGEKLFDGVEDKLGFCIDDMGSLATLMKDGRLGVVTPLMPWDEVRLLEHHHHHH,soluble
14,MSAKREFSHITLASTPFKKRIDQNSLKTDSDIEKDTNIAHKCAERFNYNTNLHRKVTLSDRFELAALGYEMKAKPRTIIEKHNDCDEFHFIYRKEKKNDYGTGSPLSAGLSLSNPLPAGRGFLSPAIQNTSNQFTFSGSPRITPQKHTPVSANHKPARSIFDDIPSNIA,not soluble
